Data reported in patent US11918645B2, “Vaccines against hepatitis B virus” (priority 2012, dated 2024).
Entries after “also recorded” stand apart in the source; their conditions may differ.

Each substance was assayed on PBMC from chronic HBV-infected subjects (assay: IFNγ ELISpot of PBMC restimulated with individual unconjugated HBV long peptides (Example 5)). Conditions: HBeAg-negative inactive carriers and HBeAg-negative treated subjects; 5 μg/mL, 18 h; FIGS. 9 and 10.
Assay type: cell-based, human
Protocol: One vial of PBMC from each subject (containing 1×10^7 cells) was thawed and lymphocyte numbers were determined using a Scepter™ automated handheld cell counter. PBMC were cultured in 2 mL culture medium (CM: RPMI-1640 Glutamax supplemented with 5% human AB serum) in 24 well cell culture plates at a concentration of 1×10^6 cells/mL for a total of 11 days. Cells were stimulated with a mixture of the nine HBV-derived long peptides described in Example 3.
Each peptide was used at a final concentration of 1 μg/peptide/mL. On Day 4, IL-2 and IL-15 were added to the cultures to final concentrations of 10 IU/mL and 10 ng/mL respectively. On Day 10, cells were washed twice in CM and cultured with 10 IU/mL IL-2 for 1 additional day. On Day 11, cells were washed twice in CM, counted and incorporated in a human IFNγ (interferon-gamma) ELISpot assay or intracellular cytokine staining.
Cells from short term cultures were plated in triplicate wells at 5×10^4 PBMC/well. Final antigen concentrations used were: 5 μg/mL for each individual peptides; PHA positive control: 1 μg/mL.

Substance	T cell responses (IFNγ ELISpot), level and frequency of responders
NP113: unconjugated HBV long peptide, polymerase region 96-130 of virtual HBV proteome (VGPLTVNEKRRLKLIMPARFYPNVTKYLPLDKGIK; HBV CONSENSUS SEQUENCE)	highest level of responses in both patient populations and in the highest proportion of subjects

Same assay, conditions: genotypes A, B, C & D; FIG. 11

Substance	T cell responses (IFNγ ELISpot) grouped by infecting HBV genotype
NP113: unconjugated HBV long peptide, polymerase region 96-130 of virtual HBV proteome (VGPLTVNEKRRLKLIMPARFYPNVTKYLPLDKGIK; HBV CONSENSUS SEQUENCE)	highest responses across all four genotypes A, B, C & D; also recorded: highest T cell response across all four genotypes compared to all other peptides

Same assay, conditions: three ethnic groups; FIG. 12

Substance	T cell responses (IFNγ ELISpot) grouped by ethnic background
NP113: unconjugated HBV long peptide, polymerase region 96-130 of virtual HBV proteome (VGPLTVNEKRRLKLIMPARFYPNVTKYLPLDKGIK; HBV CONSENSUS SEQUENCE)	highest responses across all three ethnic groups

The substances below were run on HLA-DP4 (α1*01:03;β1*04:01) (assay: ProImmune REVEAL MHC class II binding assay of long peptides). Conditions: percentage of the signal of the positive control peptide; positive binding score >=15%.
Set-up: species or system human

Substance	binding score, HLA-DP4 (α1*01:03;β1*04:01) [%]
NP113: unconjugated HBV long peptide, polymerase region 96-130 of virtual HBV proteome (VGPLTVNEKRRLKLIMPARFYPNVTKYLPLDKGIK; HBV CONSENSUS SEQUENCE)	33.51

What follows are substances tested against HLA-A*2402 (Homo sapiens, UniProt P04439, D101N/D140Y/D185E/E176V/E190D/F33S/G103R/G107R/I119L/I121M/I306V/K335N/L105A/L180Q/L300P/N151K/N90K/Q86E/Q94H/R106L/R138H/R89G/T104I/T345S/V100E/W191G/Y123F) (assay: ProImmune REVEAL MHC class I binding assay of nonamers). Conditions: score as % of positive control peptide.
Description: (§1) The number of HLA class I binding registers contained in each peptide may be determined by determining the ability of the peptide to bind to a range of frequently occurring HLA class I molecules. HLA class I binding may be measured using the ProImmune REVEAL® MHC-peptide Binding Assay (ProImmune Ltd, Oxford, UK). The REVEAL™ MHC peptide-binding assay measures the ability of each peptide to stabilize the ternary MHC-peptide complex for […], HLA-A*0201, HLA¬A*0301, HLA-A*2402, HLA-B*0702, HLA-B*0801, HLA-B*3501 representative of main HLA class I supertypes. Each tested peptide is given a score relative to a pass/fail control peptide and also compared to a positive control peptide.
(§2) Detection is based on the presence or absence of the native conformation of the MHC-peptide complex. The highly frequent HLA class I alleles (HLA-A*0201, A*0301, A*1101, A*2402, B*0702, B*0801, and B*3501) were selected. Binding to MHC molecules was compared to that of a known T-cell epitope, a positive control peptide, with very strong binding properties. […] The score of the test peptide is reported quantitatively as a percentage of the signal generated by the positive control peptide, and the peptide is indicated as having a putative pass or fail result. Good binders are considered to be those peptides with scores 45% of the positive control as defined by ProImmune.

Substance	Number of nonamers having a binding score >= 45%, HLA-A*2402
NP113: unconjugated HBV long peptide, polymerase region 96-130 of virtual HBV proteome (VGPLTVNEKRRLKLIMPARFYPNVTKYLPLDKGIK; HBV CONSENSUS SEQUENCE)	3

What follows are substances tested against HLA-B*3501 (Homo sapiens, UniProt P01889, A329T/A93T/A95T/C349S/D201E/D98Y/E176V/E187L/E204Q/E69T/I218V/K202T/L119I/Q94N/R155S/R180L/S121R/S35A/S48A/T118I/V127L/V306I/V36M/Y140S/Y91F) in the same assay as above. Conditions: score as % of positive control peptide.
Description: as §1, §2

Substance	Number of nonamers having a binding score >= 45%, HLA-B*3501
NP113: unconjugated HBV long peptide, polymerase region 96-130 of virtual HBV proteome (VGPLTVNEKRRLKLIMPARFYPNVTKYLPLDKGIK; HBV CONSENSUS SEQUENCE)	2

These substances were tested against HLA-B*0801 (Homo sapiens, UniProt P01889, A93T/A95T/D138N/E176V/E187T/K202T/Q94N/R180D/S35A/V36M/Y33D/Y91F) in the same assay as above. Conditions: score as % of positive control peptide.
Description: as §1, §2

Substance	Number of nonamers having a binding score >= 45%, HLA-B*0801
NP113: unconjugated HBV long peptide, polymerase region 96-130 of virtual HBV proteome (VGPLTVNEKRRLKLIMPARFYPNVTKYLPLDKGIK; HBV CONSENSUS SEQUENCE)	3

The substances below were run against HLA-A*0201 (Homo sapiens, UniProt P04439, D140Y/D185E/D98H/E176V/E277Q/G131W/G231S/I119V/I121R/I166T/I218V/L300P/L318F/N151K/N90K/P208A/P217A/Q86G/Q94H/R138H/R169H/T345S) in the same assay as above. Conditions: score as % of positive control peptide.
Description: as §1, §2

Substance	Number of nonamers having a binding score >= 45%, HLA-A*0201
NP113: unconjugated HBV long peptide, polymerase region 96-130 of virtual HBV proteome (VGPLTVNEKRRLKLIMPARFYPNVTKYLPLDKGIK; HBV CONSENSUS SEQUENCE)	2

What follows are substances tested against T1, HLA-A*0301 (Homo sapiens, UniProt P04439) in the same assay as above. Conditions: score as % of positive control peptide.
T1 construct: purchased ProImmune
Description: as §1, §2

Substance	Number of nonamers having a binding score >= 45%, HLA-A*0301
NP113: unconjugated HBV long peptide, polymerase region 96-130 of virtual HBV proteome (VGPLTVNEKRRLKLIMPARFYPNVTKYLPLDKGIK; HBV CONSENSUS SEQUENCE)	3

What follows are substances tested against T2, HLA-A*1101 (Homo sapiens, UniProt P04439, A114D/D185E/E176A/F33Y/L180Q/S129P/T187R) in the same assay as above. Conditions: score as % of positive control peptide.
T2 construct: purchased ProImmune
Description: as §1, §2

Substance	Number of nonamers having a binding score >= 45%, HLA-A*1101
NP113: unconjugated HBV long peptide, polymerase region 96-130 of virtual HBV proteome (VGPLTVNEKRRLKLIMPARFYPNVTKYLPLDKGIK; HBV CONSENSUS SEQUENCE)	5

Each substance was assayed against T3, HLA-B*0702 (Homo sapiens, UniProt P01889) in the same assay as above. Conditions: score as % of positive control peptide.
T3 construct: purchased ProImmune
Description: as §1, §2

Substance	Number of nonamers having a binding score >= 45%, HLA-B*0702
NP113: unconjugated HBV long peptide, polymerase region 96-130 of virtual HBV proteome (VGPLTVNEKRRLKLIMPARFYPNVTKYLPLDKGIK; HBV CONSENSUS SEQUENCE)	2

These substances were tested against T4, HLA-DR15 (α1*01:01;β1*15:01) (Homo sapiens, UniProt P01903+P01911) (assay: ProImmune REVEAL MHC class II binding assay of long peptides). Conditions: percentage of the signal of the positive control peptide; positive binding score >=15%.
T4 construct: purchased ProImmune
Description: (§3) The highly frequent HLA class II alleles HLA-DR1 (α1*01:01;β1*01:01), HLA-DR15 (α1*01:01;β1*15:01), HLA-DR3 (α1*01:01;β1*03:01), HLA-DR4 (α1*01:01;β1*04:01), HLA-DR11 (α1*01:01;β1*11:01), HLA-DR13 (α1*01:01;β1*13:01), and HLA-DR7 (α1*01:01;β1*07:01) were selected. Each peptide was given a score relative to the positive control peptide, which is a known T-cell epitope. The score of the test peptide is reported quantitatively as a percentage of the signal generated by the positive control peptide, and the peptide is indicated as having a putative pass or fail result. Good binders are considered to be those peptides with scores >=15% of the positive control as defined by Proimmune.

Substance	binding score, HLA-DR15 (α1*01:01;β1*15:01) [%]
NP113: unconjugated HBV long peptide, polymerase region 96-130 of virtual HBV proteome (VGPLTVNEKRRLKLIMPARFYPNVTKYLPLDKGIK; HBV CONSENSUS SEQUENCE)	28.04

The substances below were run against T5, HLA-DR7 (α1*01:01;β1*07:01) (Homo sapiens, UniProt P01903+P01911, A100R/A102G/A103Q/D57E/D86V/E43K/F76Y/K127E/L162R/M171V/P40G/Q125H/Q99D/R195Q/R33Q/R42Y/R54Q/S133A/S149N/S66F/T210M/V115G/Y107V/Y59L/Y89S) in the same assay as above. Conditions: percentage of the signal of the positive control peptide; positive binding score >=15%.
T5 construct: purchased ProImmune
Description: as §3

Substance	binding score, HLA-DR7 (α1*01:01;β1*07:01) [%]
NP113: unconjugated HBV long peptide, polymerase region 96-130 of virtual HBV proteome (VGPLTVNEKRRLKLIMPARFYPNVTKYLPLDKGIK; HBV CONSENSUS SEQUENCE)	99.17

These substances were tested on HLA class I alleles (assay: ProImmune REVEAL MHC class I binding assay, summary over the seven alleles). Conditions: number of class I alleles for which positive binding was detected.
Set-up: species or system human
Description: as §1, §2

Substance	Number of allele (b)
NP113: unconjugated HBV long peptide, polymerase region 96-130 of virtual HBV proteome (VGPLTVNEKRRLKLIMPARFYPNVTKYLPLDKGIK; HBV CONSENSUS SEQUENCE)	7

Same assay, conditions: total number binding epitopes detected for each long peptide, seven class I alleles

Substance	Number of HLA binders (a)
NP113: unconjugated HBV long peptide, polymerase region 96-130 of virtual HBV proteome (VGPLTVNEKRRLKLIMPARFYPNVTKYLPLDKGIK; HBV CONSENSUS SEQUENCE)	20
